Drawing on PMC12291119 (2025), this text covers koff and Kd for eight molecules.

B2: PGT128 (antibody, V domains shown)
VH: QPQLQESGPTLVEASETLSLTCAVSGDSTAACNSFWGWVRQPPGKGLEWVGSLSHCASYWNRGWTYHNPSLKSRLTLALDTPKNLVFLKLNSVTAADTATYYCARFGGEVLRYTDWPKPAWVDLWGRGTLVTVSS
VL: QSALTQPPSASGSPGQSITISCTGTSNNFVSWYQQHAGKAPKLVIYDVNKRPSGVPDRFSGSKSGNTASLTVSGLQTDDEAVYYCGSLVGNWDVIFGGGTKLTVL

Targets include m14; m13; m12.
What all share (experiment): BLI
Background: Biolayer interferometry detects binding as a change in optical thickness at a sensor tip.

The target in test [1] is B2.
Test [2] has as its target H1 mutant without the glycans at the second and third glycosylation sites (peptide 4) (Man9GlcNAc2 by CuAAC on homopropargylglycine at the first glycosylation site only; biotin on the C-terminal lysine).
In test [3] the target is H1 mutant without the glycan at the first of the three glycosylation sites (peptide 3) (Man9GlcNAc2 by CuAAC on homopropargylglycine at the second and third glycosylation sites only; biotin on the C-terminal lysine).
Test [4] concerns the target random scrambled version of the H1 sequence containing three glycans and cyclization (peptide 6) (three Man9GlcNAc2 glycans attached by CuAAC on homopropargylglycine (printed as M); cyclized; biotin on the C-terminal lysine).
Test [5] deals with GB1R-non-glycosylated peptide (12).
The target in test [6] is B2. This is another data set of the same source.

Bridge positions count the residues as written; N and C are the ends. Square brackets hold non-standard residues; d marks the D form. Primed or numbered codes have the meaning given here. Ends that are not written are not given here. * marks the point of attachment. Man9GlcNAc2 = CC(=O)N[C@@H]1[C@@H](O)[C@H](O[C@@H]2O[C@H](CO)[C@@H](O[C@@H]3O[C@H](CO[C@H]4O[C@H](CO[C@H]5O[C@H](CO)[C@@H](O)[C@H](O)[C@@H]5O[C@H]5O[C@H](CO)[C@@H](O)[C@H](O)[C@@H]5O)[C@@H](O)[C@H](O[C@H]5O[C@H](CO)[C@@H](O)[C@H](O)[C@@H]5O[C@H]5O[C@H](CO)[C@@H](O)[C@H](O)[C@@H]5O)[C@@H]4O)[C@@H](O)[C@H](O[C@H]4O[C@H](CO)[C@@H](O)[C@H](O)[C@@H]4O[C@H]4O[C@H](CO)[C@@H](O)[C@H](O)[C@@H]4O[C@H]4O[C@H](CO)[C@@H](O)[C@H](O)[C@@H]4O)[C@@H]3O)[C@H](O)[C@H]2NC(C)=O)[C@@H](CO)O[C@H]1*; Hpra′ = its azide, alkyne or alkene has reacted where a group follows in round brackets

B1: H1 glycopeptide (peptide 1) (peptide)
chain: YTEKHNGIGDIRPAIC[Hpra′](Man9GlcNAc2)NSKNQNHRCNHYQIKLYIH[Hpra′](Man9GlcNAc2)L[Hpra′](Man9GlcNAc2)RLPHNYRNS
modifications: linker 16-26 via m‑dibromoxylene (inferred); not fully specified (C-terminus); also: Man9GlcNAc2 attached by CuAAC, biotin on the C-terminal lysine (no K at C-terminus of given chain)
The koff is the first-order rate constant of dissociation. Low values mean slow dissociation, high ones fast dissociation. Regarding B1, the off-rate (koff) with PGT128 [1] was 6.3e-05 s⁻¹.
One may read the Kd as the concentration at which binding is half-saturated. B2: the Kd turned out to be 21.1 nM in test [2] and 0.94 nM in test [3]. Also, the koff was found to be 0.00221 s⁻¹ in test [2], 5.6e-05 s⁻¹ in [3] and 0.0132 s⁻¹ in [4].

B3: L1 glycopeptide (peptide 8) (peptide)
chain: SIKLINQ[Hpra′](Man9GlcNAc2)[Hpra′](Man9GlcNAc2)TTNPHLRLHIGDIRRLIKDLY[Hpra′](Man9GlcNAc2)FRVYYRPTNSGRRLFVN
modifications: not fully specified (C-terminus); also: Man9GlcNAc2 attached by CuAAC, biotin on the C-terminal lysine (no K at C-terminus of given chain)
As for B3, the koff in the test with PGT128 [1] stood at 0.000645 s⁻¹.

B4: gl-PGT121 (protein)
chain 1: SYVLTQPPSVSVAPGQTARITCGGNNIGSKSVHWYQQKPGQAPVLVVYDDSDRPSGIPERFSGSNSGNTATLTISRVEAGDEADYYCQVWDSSSDHPWVFGGGTKLTVLGQPKAAPSVTLFPPSSEELQANKATLVCLISDFYPGAVTVAWKADSSPVKAGVETTTPSKQSNNKYAASSYLSLTPEQWKSHRSYSCQVTHEGSTVEKTVAPTECS
chain 2: QVQLQESGPGLVKPSETLSLTCTVSGGSISSYYWSWIRQPPGKGLEWIGYIYYSGSTNYNPSLKSRVTISVDTSKNQFSLKLSSVTAADTAVYYCARTQQGKRIYGVVSFGDYYYYYYMDVWGKGTTVTVSSASTKGPSVFPLAPSSKSTSGGTAALGCLVKDYFPEPVTVSWNSGALTSGVHTFPAVLQSSGLYSLSSVVTVPSSSLGTQTYICNVNHKPSNTKVDKRVEPKSCDKTHHHHHH
Take B4: in the test with m14, the Kd is 570 nM and the koff was found to be 0.00262 s⁻¹. In [5], this molecule came in with a Kd of 710 nM and a koff of 0.00199 s⁻¹.

B5: H1 mutant with IGDIR changed to IAAIA (peptide 5) (peptide)
chain: YTEKHNGIAAIAPAIC[Hpra′](Man9GlcNAc2)NSKNQNHRCNHYQIKLYIH[Hpra′](Man9GlcNAc2)L[Hpra′](Man9GlcNAc2)RLPHNYRNS
modifications: not fully specified (C-terminus); cysteine pairing not given here; also: Man9GlcNAc2 attached by CuAAC, biotin on the C-terminal lysine (no K at C-terminus of given chain)
B5 came in with a koff with PGT128 [1] of 0.00212 s⁻¹. For the same molecule, in the test with PGT128 [6], the Kd came out at 12.4 nM.

B6: H22 glycopeptide (peptide 2) (peptide)
chain: LFKPYPKIGDIRKARC[Hpra′](Man9GlcNAc2)LQHTLHHRTNKQPSYRRRLKTLIPLFRRC[Hpra′](Man9GlcNAc2)L
modifications: not fully specified (C-terminus); cysteine pairing not given here; also: Man9GlcNAc2 attached by CuAAC, biotin on the C-terminal lysine (no K at C-terminus of given chain)
As for B6, the koff with PGT128 [1] is 0.00635 s⁻¹.

B7: m2 (protein)
chain 1: QVHLQESGPGLVKPSETLSLTCNVSGTLVRDNYWSWIRQPLGKQPEWIGYVHDSGDTNYNPSLKSRVHLSLDKSKNLVSLRLTGVTAADSAIYYCATTKHGRRIYGVVAFKEWFTYFYMDVWGKGTSVTVSS
chain 2: APTFVSVAPGQTARITCGEESLGSRSVIWYQQRPGQAPSLIIYNNNDRPSGIPDRFSGSPGSTFGTTATLTITSVEAGDEADYYCHIWDSRRPTNWVFGEGTTLIVL
For B7, the koff in the test with m13 amounted to 0.000202 s⁻¹; in the test with m12, 0.000802 s⁻¹.

B8: acyclic H1 variant (peptide 7) (peptide)
chain: YTEKHNGIGDIRPAIC(iodoacetamide)[Hpra′](Man9GlcNAc2)NSKNQNHRC(iodoacetamide)NHYQIKLYIH[Hpra′](Man9GlcNAc2)L[Hpra′](Man9GlcNAc2)RLPHNYRNS
modifications: not fully specified (C-terminus); also: Man9GlcNAc2 attached by CuAAC, biotin on the C-terminal lysine (no K at C-terminus of given chain)
For the molecule B8, in the test with PGT128 [1], the koff came to 0.00616 s⁻¹.
